Results published in patent publication EP0811683B1, “Antibodies to human gastrin-releasing peptide precursor and use thereof” (Yamaguchi, Ken, priority 1996, dated 1997).
Where no end group is shown, it is not given here.

Experiment: Comparison of stability of GRPs in the blood (serum, plasma, aprotinin-containing plasma; Fig. 3)
Assay type: in vitro ADME
Details: 0, 1 and 6 hours, result in words
Description: Stabilities in the blood of GRP(1-27) and GRP(31-98) were compared using antibodies to the above-prepared GRP(31-98) and antibodies to the conventional GRP(1-27).
A small amount of GRP(1-27) or GRP(31-98) was added to a serum, plasma, or aprotinin - containing plasma, and the residual concentration of GRP(1-27) and GRP(31-98) was determined at 0, 1, and 6 hours from the addition, and the percentages of the residual concentration were obtained taking the concentration at the starting point (0 hour) as 100%.

## GRP(1-27): mature human gastrin-releasing peptide, active peptide of 27 amino acids (VPLPAGGGTVLTKMYPRGNHWAVGHLM; ends and bridges not checked; UniProt P07492 24-50, looked up)
  stability in serum or plasma (residual concentration): degraded and disappeared
